Experimental findings from paper PMC5898196 (Science (New York, N.Y.), 2017) are described below.

This series deals with the molecule itself. As to the kind of experiment: cryo-EM structure.

B1: Recombinant full-length human TRPM4 (hTRPM4b) (natural protein)
chain: not shown
modifications: glycan at Asn992
What is called stoichiometry N is the number of molecules, sites or subunits per partner or assembly. With B1, the “stoichiometry N” value came out at 4.
